Here are results for eight substances from patent US20240254204A1.

One may read the IC50 as the concentration that gives 50% inhibition.

Where two headings read alike, the source gives them in different places.

For test [1], the target named is SARS-CoV-1.
Test [2] concerns the target SARS-CoV-2 RBD (SARS-CoV-2). The test is described as follows: sVNT, cPass kit with SARS-CoV-2 RBD-HRP.
In test [3] the target is SARS-CoV-1 RBD (SARS-CoV). The test is described as follows: sVNT, cPass kit format with SARS-CoV-1 RBD-HRP.
The target of test [4] is SARS-CoV-1 RBD (SARS-CoV). As to the kind of experiment: ELISA, 100 ng coated RBD, anti-human IgG-HRP. Background: In an ELISA, binding on a coated surface is turned into a signal by an enzyme label.
Test [5] addresses SARS-CoV-2 RBD (SARS-CoV-2). As to the kind of experiment: ELISA, 100 ng coated RBD, anti-human IgG-HRP.
The target in test [6] is SARS-CoV-2 Lambda (SARS-CoV-2 Lambda).
Test [7] addresses SARS-CoV-2 Mu.
Test [8] addresses Bat CoV BANAL-52.
Test [9] has as its target Bat CoV RsSHC014 (SC1r-CoV RsSHC014).
Test [10] deals with Bat CoV Rs2018B (SC1r-CoV Rs2018B).
Test [11] has as its target SARS-CoV-2 Gamma.
Test [12] concerns the target SARS-CoV-2 Lambda (SARS-CoV-2 Lambda). This is another data set of the same source.
In test [13] the target is SARS-CoV-1. This is another data set of the same source.
The target of test [14] is SARS-CoV-2 Mu. The source holds these as a separate data set.
Test [15] has as its target Bat CoV BANAL-52. This is another data set of the same source.
Test [16] addresses Bat CoV WIV-1 (SC1r-CoV WIV-1).
Test [17] has as its target SARS-CoV-2 Gamma. This is another data set of the same source.

In the test with SARS-CoV-1 [1], CR3022 yielded an IC50 of 0.397 µg/mL.

As for CR3022 (antibody), the sVNT SARS-CoV-2 (% I) in test [2] was determined as 24.2%. This substance displayed a sVNT SARS-CoV-1 (% I) in test [3] of 32.5%. This substance also had a Binding SARS-CoV-1 in [4] of 1.19. In addition, the Binding SARS-CoV-2 in test [5] amounted to 1.46.

For the substance LyCoV-1404, the results for the IC50 (in test [6]; in the test with SARS-CoV-2 Mu [7]; in the test with Bat CoV BANAL-52 [8]) were 0.077 µg/mL, 0.067 µg/mL and 0.12 µg/mL, respectively.

In test [2], LyCoV-1404 (Eli Lily) (antibody) had a sVNT SARS-CoV-2 (% I) of 0.144%. Besides, the sVNT SARS-CoV-1 (% I) in test [3] was found to be 94.5%. In test [4], this substance registered a Binding SARS-CoV-1 of 1.54. The substance further came in with a Binding SARS-CoV-2 in test [5] of 0.445.

As for S2X259, the IC50 in [9] was 0.133 µg/mL; in test [10], 0.142 µg/mL; in the test with SARS-CoV-2 Gamma [11], 0.102 µg/mL; with Bat CoV LYRa11 it was 0.073 µg/mL; in [12], 0.047 µg/mL; in the test with SARS-CoV-1 [13], 0.871 µg/mL. The IC50 with Pangolin CoV GD-1 was 0.112 µg/mL; with SARS-CoV-2 Mu [14] it was 0.067 µg/mL; with Bat CoV BANAL-52 [15] it was 0.097 µg/mL; in [16], 0.117 µg/mL.

S2X259 (VirBiotech) (antibody) had a sVNT SARS-CoV-2 (% I) in test [2] of 94%. In addition, in test [3], the sVNT SARS-CoV-1 (% I) is 92.8%. For the same substance, the Binding SARS-CoV-1 in test [4] worked out at 0.973. In addition, the Binding SARS-CoV-2 in test [5] is 1.73.

Regarding S309, the values for the IC50 in the test with SARS-CoV-2 Gamma [17], with SARS-CoV-2 Delta and in the test with SARS-CoV-2 Delta Plus were 0.172 µg/mL, 0.199 µg/mL and 0.24 µg/mL, respectively.

S309 (Sotrovimab, GSK) (antibody): the sVNT SARS-CoV-2 (% I) in test [2] was determined as 39.6%. The sVNT SARS-CoV-1 (% I) in test [3] came to 36.5%. For the same substance, the Binding SARS-CoV-1 in test [4] stood at 1.22. This substance showed a Binding SARS-CoV-2 in [5] of 1.55.
